The term Kd denotes a measure of binding affinity in units of concentration. For orientation: koff means the rate constant with which the complex falls apart. A high value points to fast dissociation. Broadly, the kon is a measure of how fast the partners come together. A lower kon goes with slower complex formation. A word on the IC50: it is the midpoint of a concentration-inhibition curve. A lower IC50 goes with higher potency. For orientation: EC50 means the midpoint of the concentration-response curve. A low value points to a more potent agent.

The record followed here is US20200362047A1 (CRESCENDO BIOLOGICS, published 2020).

In experiment [1] the target is T1, human CD137-human Fc chimeric protein (Acro Biosystems cat no. 41B-H5258) (human, UniProt Q07011 24-186).
T1 construct: Bought protein; The Octet Protein G and Biacore experiments name no catalogue number; also called human CD137Fc recombinant protein; human CD137-Fc recombinant protein; not shown: human IgG1 Fc tag
The experiment can be described thus: BLI (Octet RED384), CD137-Fc on Protein G sensors, 1:1 model. Here is the method:
Binding kinetics of purified VH, bivalent VH and trivalent VH molecules were measured on a ForteBio Octet RED 384 instrument. CD137-Fc tagged protein was diluted to 3 μg/ml in kinetics buffer (0.1% BSA, 0.02% Tween, 1×PBS) and coupled to Protein G biosensors (ForteBio cat no. 18-5082) via the Fc tag. VH were serially diluted (typically 1:2 dilution series starting with 50 nM, VH at the highest concentration) and binding to the CD137-Fc-coupled Protein G biosensors measured. Binding kinetics were determined from the (blank subtracted) sensor gram trace using 1:1 binding models and ForteBio Octet Data Analysis 9.0 software. Example kinetic and binding affinity data obtained is shown Table 10 (monovalent VH) and FIG. 1 (bivalent and trivalent molecules).
A general note: BLI is a label-free optical method that tracks binding on a fibre tip over time.

The target of experiment [2] is T2, human CD137 expressed on the surface of CHO cells (human, UniProt Q07011 24-255).
T2 construct: Also used for the Jurkat reporter cells that express human CD137 (functional rows); also called CHO human CD137 cells; CHO huCD137
T2 sequence (Q07011 24-255 limits assumed): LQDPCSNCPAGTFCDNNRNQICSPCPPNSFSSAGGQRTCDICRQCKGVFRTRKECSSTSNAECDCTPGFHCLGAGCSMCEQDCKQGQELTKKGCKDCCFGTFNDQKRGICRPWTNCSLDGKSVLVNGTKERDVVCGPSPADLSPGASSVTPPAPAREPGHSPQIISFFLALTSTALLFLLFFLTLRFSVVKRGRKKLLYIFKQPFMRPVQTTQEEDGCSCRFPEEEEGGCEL
The experiment can be described thus: FMAT ligand inhibition, CD137 Ligand on CHO human CD137 cells. The procedure: In parallel to the binding assay, periplasmic extracts were tested for their ability to inhibit the interaction of human CD137 ligand protein with CHO human CD137 cells in an FMAT format. Total binding controls containing diluted periplasmic extract sample buffer and non-specific binding controls containing excess non-Fc tagged competitor were set up on each plate for data normalisation. Fluorescence signal was measured using the TTP Mirrorball and the FL2 median mean fluorescence intensity of gated used for the data normalisation. The data was expressed as a % of the total binding control (% control) after subtraction of the background signal determined from the non-specific binding control wells.
The ability of purified Humabody VH to inhibit the binding of CD137 Ligand to CHO human CD137 cells was measured in the FMAT ligand inhibition assay essentially as described in Example 6. VH inhibited the binding of human CD137 Ligand to human CD137.

The target of experiment [3] is T3, CD137 on pre-stimulated human CD8+ T cells (human, UniProt Q07011 24-255).
T3 construct: also called pre-stimulated CD8+ cells; primary T cells
T3 sequence (Q07011 24-255 limits assumed): as above
The experiment can be described thus: flow cytometry, PMA/ionomycin-stimulated human CD8+ T cells, mean of 2-3 donors. The procedure:
Binding to primary T cells was measured using flow cytometry. Peripheral blood mononuclear cells (PBMCs) were isolated from human blood by density gradient centrifugation then CD8+ T cells purified using a negative selection isolation kit according to the manufacturer's protocol (Miltenyi Biotech cat no 130-042-401). T-cells were stimulated PMA/Ionomycin for 48-72 hours in RPMI media supplemented with 10% FBS, 2 mM Glutamine, 1× Pen/Strep. Cells were transferred into 96 well plates, blocked for 10 mins with staining buffer (PBS/1% BSA/0.05% Sodium Azide) then incubated with serially diluted VH in staining buffer (PBS/1% BSA) for 30 mins-1 hour at 4° C. Cells were washed by centrifugation then VH binding detected using Anti His antibody (Millipore 05-949) and Goat Anti Mouse Alexa Fluor-488 (Jackson ImmunoResearch cat no. 115-545-071). A Live Dead near IR stain (Molecular Probes cat no. L10119) was used for discrimination of live cells. After further washing cells were fixed and fluorescence measured by flow cytometry.
In general terms: A flow cytometer gives signals particle by particle.

Experiment [4] concerns the target T2, human CD137 expressed on the surface of …. The experiment can be described thus: FMAT, CHO human CD137 cells. The procedure: Binding of His-tagged molecules to CHO human CD137, CHO parent, CHO human PSMA, DU145 PSMA and DU145 parent cells was assessed using Fluorescence Microvolume Assay Technology (FMAT). All reagents were prepared in FMAT assay buffer (pH 7.4) containing PBS, 0.1% Bovine Serum Albumin, 0.05% Sodium Azide. Serially diluted samples were transferred into 384 well black clear-bottomed assay plates (Costar cat. no. 3655) and incubated for a minimum of 2 hours at room temperature with 1.5 nM Anti-His (Millipore cat. no. 05-949), […] Goat Anti-Mouse Alexa Fluor-488 (Jackson ImmunoResearch cat. no. 115-545-071) and 2000 cells/well pre-stained with DRAQ5 (Thermo Scientific cat. no. 62251). Fluorescence emission was then measured on the TTP Mirrorball plate reader in the FL2 (502 nm-537 nm) and FL5 (677-800 nm) channels following excitation at 488 nm and 640 nm. Data was gated on FL5 perimeter and peak intensity and the FL2 median mean fluorescence intensity of the gated data used for determination of VH binding. Monovalent CD137 specific Humabody® VH, bispecific and trispecific molecules with a CD137 binding arm bound to CHO CD137 expressing cells. Monovalent PSMA specific Humabody® VH, bispecific and trispecific molecules with a PSMA binding arm bound to PSMA expressing cells.

B1: Humabody VH 1.16 (VHH)
VHH: EVQLVESGGGLVQPGGSLRLSCVASGFTFSNYWMMWFRQAPGKGLEWVANINQDGSEKYFVDSVEGRFTISRDNAKNSLYLQMNSLRAEDTAVYYCARGGDGYSSSHYGTDVWGQGTTVTVSS
notes: human single VH domain
In experiment [1], B1 registered a Kd of 2.4 nM, a koff of 0.00145 s⁻¹ and a kon of 610000 M⁻¹ s⁻¹.

B2: Humabody VH 1.75 (VHH)
VHH: QVQLVESGGGLVQPGGSLRLSCAASGFTFSDYYMSWIRQAPGKGLEWVANINQDGSERYYVDSVKGRFTISRDNAKNSLYLQMSSLRAEDTAVYFCARGGEGYGVDHYGLDVSGQGTTVTVSS
notes: human single VH domain
On to B2, for which, in experiment [1], the Kd worked out at 0.75 nM, the koff worked out at 0.000353 s⁻¹ and the kon was found to be 474000 M⁻¹ s⁻¹.

B3: Humabody VH 1.81 (VHH)
VHH: QVQLVESGGGLVQPGGSLRLSCAATGFTLSNYWMNWVRQAPGKGLEWVANINQDGSERYYVDSVEGRFTISRDNAKSSLYLQMSNLRAEDTAVYFCARGGEGYGVDHYGLDVSGQGTTVTVSS
notes: human single VH domain
In experiment [1], B3 returned a Kd of 0.16 nM, a koff of 0.000171 s⁻¹ and a kon of 1.06e+06 M⁻¹ s⁻¹.

B4: Humabody VH 2.20 (VHH)
VHH: EVQLVESGGGLVKPGGSLRLSCAASGFTFSDYYMSWIRQAPGKGLEWVSHISSSGSTIDYADSVKGRFTISRDNAKNSLYLQMNSLRAEDTAVYYCAREDPRMPGTFDFDNWGQGTLVTVSS
notes: human single VH domain
For the molecule B4, in experiment [1], the affinity, expressed as Kd, was 1.2 nM; the koff stood at 0.002 s⁻¹; the on-rate (kon) came to 1.64e+06 M⁻¹ s⁻¹. In experiment [2], the IC50 was 1.7 nM.

B5: Humabody VH 2.26 (VHH)
VHH: EVQLVESGGGLVKPGGSLRLSCTASGFTFTDYYMSWFRQAPGKGLEWVSHISSSGTTIDYADSVKGRFTISRDNAKNSLYLQMNSLRADDTAVYYCAREDIRMPGTTDFDNWGQGTLVTVSS
notes: human single VH domain
In experiment [1], B5 gave a Kd of 4.7 nM, a koff of 0.00842 s⁻¹ and a kon of 1.8e+06 M⁻¹ s⁻¹. Besides, half-maximal inhibition in experiment [2] (IC50) was put at 8.5 nM. In experiment [3], it took 2.8 nM to reach a half-maximal effect (EC50). Further, in experiment [4], a half-maximal effect (EC50) was put at 0.18 nM.

B6: 1.78-6GS-4.1 (bispecific antibody)
chain: QVQLVESGGGLVQPGGSLRLSCAATGFTLSNYWMNWVRQAPGKGLEWVANINQDGSERYYVDSVKGRFTISRDNAKNSLYLQMSSLRAEDTAVYFCARGGEGYGVDHYGLDVSGQGTTVTVSSGGGGSGGGGSGGGGSGGGGSGGGGSGGGGSEVQLVESGGGVVQPGRSLRLSCAASGFSFSGYGMHWVRQAPGKGLEWVAYISYDGSNKYYADSVKGRFTISRDNSKNTLYLQMNSLRAEDTAVYYCAKDPAWGLRLGESSSYDFDIWGQGTMVTVSS
notes: built from its printed name (1.78, 6GS linker, 4.1); not shown: His tag
Molecule B6 returned an IC50 in experiment [2] of 2.8 nM. This lies in the single-digit nanomolar range.

B7: Humabody VH 1.39 (VHH)
VHH: EVQLVESGGGLVQPGGSLRLSCAASGFTFSNYWMNWVRQAPGKELEWVANINQDESEKYYVDSVKGRFTVSRDNAKNSLFLQMNSLRADDTAVYYCARGGFGYGDSHFGMDVWGQGTTVTVSS
notes: human single VH domain
As to B7, in experiment [1], binding was put at a Kd of 0.9 nM, the off-rate constant (koff) is 0.000505 s⁻¹ and the kon was 559000 M⁻¹ s⁻¹.

B8: Humabody VH 1.63 (VHH)
VHH: EVQLVESGGGLVQPGGSLSLSCAASGFTFRSFWMNWVRQAPGKEAEWVANINQDGSEKYYVDSVKGRFTISRDNAKNSLFLQMNSLRAEDTAVYYCARGGPDYGDLHYGMDVWGQGTTVTVSS
notes: human single VH domain
In experiment [1], B8 showed a Kd of 2.8 nM, a koff of 0.000596 s⁻¹ and a kon of 217000 M⁻¹ s⁻¹.

B9: Humabody VH 1.71 (VHH)
VHH: EVQLVESGGGLVQPGGSLRLSCAASGFTFGNYWMIWVRQAPGKELEWLANINQNGSERYYVDSVQGRFTISRDNAKNSLYLQMNSLRAEDTAVYYCARGGADYSNSHYGMDVSGQGTTVTVSS
notes: human single VH domain
For the molecule B9, in experiment [1], the Kd came out at 0.091 nM, the koff stood at 2.84e-05 s⁻¹ and the kon came out at 313000 M⁻¹ s⁻¹.
